The text below walks through data of paper PMC10090079.

Assay [1] concerns the target OsCas12f1 from Oscillibacter sp. (Oscillibacter sp.). As to the kind of experiment: SEC; Cas12f1 RNP assembled in vitro at 4:3 molar ratio protein:sgRNA in buffer D (25 mM Tris-HCl pH 8.0, 150 mM NaCl, 2 mM DTT, 1 mM MgCl2) at 37 °C for 30 min; Superdex 200 Increase 10/300 equilibrated with buffer D; calibrated with Gel Filtration Standard (Bio-Rad); dimer in presence of sgRNA.

For assay [2], the target named is RhCas12f1 from Ruminiclostridium herbifermentans (Ruminiclostridium herbifermentans). Described as above.

“OsCas12f1 from Oscillibacter sp. (enzyme)”: the stoichiometry N in assay [1] came out at 2. Regarding “RhCas12f1 from Ruminiclostridium herbifermentans (enzyme)”, the stoichiometry N in assay [2] is 2.
